Reference: the supplement of paper PMC10126150
± gives the standard deviation of the averaged measurements.

System: ATP
Assay: switch fluorescence ratio, 500 uM ATP over buffer (Cy3 cluster intensity, sum of 5 cycles each) (fold (ratio)); higher = stronger signal-on switching upon ATP binding; sequences stand for … in TCGTCGGCAGCGTCAGATGTGTATAAGAGACAGTTTTTTTTTTTTTTTTTTTTTTTTT…TC
Conditions: aptamer strand: ATP DNA aptamer (quencher-CACCTGGGGGAGTATTGCGGAGGAAGG + anchor), 100 nM annealed; ATP concentration: 500 uM
Procedure, shortened: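 The fluorescence ratio divides summed target-cycle Cy3 intensity by summed buffer-cycle Cy3 intensity for each cluster and is averaged per switch-domain sequence. Cy3-labelled switching-strand clusters on a modified Illumina MiSeq flow-cell were annealed to 100 nM quencher-labelled ATP aptamer, then imaged in selection buffer and again after 15 min with 500 uM ATP at 22 °C. Five such cycles were run, with NaOH stripping and re-annealing between them, and clusters outside 100-1000 RFU were excluded.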
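Further: ATP exposure 15 min at 22 °C before imaging.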

Sequence | switch fluorescence ratio
GGTAATTTGG | 1 ± 0.023
GGTACAGAAT | 0.9997 ± 0.0012
GGTACAGAGC | 1 ± 0.064
GGTACCAGGC | 1.019 ± 0.0021
GGTACGAAGT | 1.01 ± 0.027
GGTACGGATC | 1.03 ± 0.018
GGTACGGGGT | 1 ± 0.028
GGTACTATCG | 0.961 ± 0.071
GGTACTATT | 0.991 ± 0.04
GGTACTGGTA | 0.984 ± 0.057
GGTACTTAGG | 1.06 ± 0.031
GGTACTTGGG | 0.984 ± 0.033
GGTACTTTTT | 1.07 ± 0.14
GGTAGAGGGG | 0.9628 ± 0.0078
GGTAGAGGTT | 0.985 ± 0.019
GGTAGATGGT | 1.01 ± 0.012
GGTAGGGTGG | 1.02 ± 0.048
GGTAGGTGTC | 0.985 ± 0.031
GGTAGGTGTT | 1.04 ± 0.037
GGTAGTAAGA | 1.01 ± 0.047
GGTAGTAATT | 0.998 ± 0.0029
GGTAGTCTTT | 0.996 ± 0.02
GGTAGTGAGC | 1.02 ± 0.02

Sequence | switch fluorescence ratio
GGTAGTGCGT | 0.968 ± 0.043
GGTAGTTAGG | 1.03 ± 0.013
GGTATAAAGA | 0.984 ± 0.049
GGTATAAGGG | 0.997 ± 0.02
GGTATAATGG | 0.971 ± 0.03
GGTATAATTA | 0.964 ± 0.024
GGTATAATTT | 1.04 ± 0.044
GGTATACTGT | 0.975 ± 0.029
GGTATCAAGT | 0.9675 ± 0.0076
GGTATGGAGC | 0.971 ± 0.039
GGTATGGCGC | 0.986 ± 0.058
GGTATGGGAG | 0.9913 ± 0.001
GGTATGGGGA | 1 ± 0.022
GGTATTAAGT | 1 ± 0.011
GGTATTATCG | 0.969 ± 0.017
GGTATTGCTT | 0.995 ± 0.0021
GGTATTGGCA | 0.996 ± 0.022
GGTATTGGCC | 0.987 ± 0.013
GGTATTTATC | 0.986 ± 0.038
GGTATTTTTA | 0.9758 ± 0.0046
GGTCAAACCA | 1.03 ± 0.0097
GGTCAATCTA | 0.946 ± 0.045
GGTCACGGCA | 1 ± 0.013

Sequence | switch fluorescence ratio
GGTCAGGGTT | 0.954 ± 0.035
GGTCAGTGAT | 1.01 ± 0.06
GGTCATAGTG | 1.01 ± 0.018
GGTCATTTAG | 0.994 ± 0.031
GGTCCAAAAT | 0.9848 ± 0.0089
GGTCCAATTA | 0.977 ± 0.015
GGTCCACCGT | 0.989 ± 0.014
GGTCCAGGTC | 1.12 ± 0.057
GGTCCAGGTT | 1.09 ± 0.068
GGTCCATGCT | 0.961 ± 0.032
GGTCCGTAGG | 1.01 ± 0.033
GGTCCTACTG | 1.01 ± 0.017
GGTCCTGTTG | 1.01 ± 0.035
GGTCGCGGAT | 1.01 ± 0.019
GGTCGCGTAG | 1.01 ± 0.03
GGTCGCTTTT | 0.9949 ± 0.0043
GGTCGGACGT | 0.992 ± 0.086
GGTCGGGACC | 0.998 ± 0.033
GGTCGGGGGT | 1.03 ± 0.039
GGTCGGGTTT | 1.01 ± 0.014
GGTCGTAGCC | 0.9719 ± 0.0084
GGTCGTCTGC | 0.984 ± 0.018
GGTCTACCGG | 1.01 ± 0.017

Sequence | switch fluorescence ratio
GGTCTAGAAA | 1.21 ± 0.3
GGTCTCTGGG | 1 ± 0.016
GGTCTGCGCG | 1.02 ± 0.037
GGTCTGTATT | 0.972 ± 0.012
GGTCTGTGTG | 0.984 ± 0.028
GGTCTGTTTC | 1.01 ± 0.015
GGTCTTGAGG | 1.01 ± 0.028
GGTCTTGTTG | 1.02 ± 0.036
GGTGAAAGCC | 0.98 ± 0.049
GGTGAAAGGA | 0.979 ± 0.058
GGTGAACAGT | 0.97143 ± 0.00048
GGTGAACCGT | 1.001 ± 0.0046
GGTGAAGGAT | 0.982 ± 0.026
GGTGAAGGTA | 0.929 ± 0.045
GGTGAATAAT | 0.9969 ± 0.0065
GGTGAGAAGT | 1.01 ± 0.013
GGTGAGAGGT | 0.9696 ± 0.0055
GGTGAGGCAA | 1.19 ± 0.12
GGTGATGATC | 1.038 ± 0.0044
GGTGATGGGT | 0.971 ± 0.04
GGTGCAACAT | 1.03 ± 0.051
GGTGCGATGC | 1.7 ± 0.081
GGTGCGGTCG | 0.9824 ± 0.0053

Sequence | switch fluorescence ratio
GGTGCGTACG | 1.01 ± 0.058
GGTGCTACAC | 1.04 ± 0.025
GGTGCTATCT | 0.992 ± 0.015
GGTGCTGGTG | 1.05 ± 0.025
GGTGGAACAG | 1.02 ± 0.028
GGTGGAAGAT | 1 ± 0.045
GGTGGAAGTA | 0.998 ± 0.064
GGTGGAATCT | 1.02 ± 0.052
GGTGGACACT | 1.03 ± 0.024
GGTGGACTTA | 1.01 ± 0.03
GGTGGAGTCG | 1.009 ± 0.0085
GGTGGATTTG | 0.981 ± 0.062
GGTGGCAAGG | 0.9912 ± 0.0094
GGTGGCCCAA | 1.001 ± 0.0059
GGTGGGAACA | 0.992 ± 0.03
GGTGGGAGCT | 1.01 ± 0.075
GGTGGGATCA | 1.09 ± 0.18
GGTGGGATTC | 1.01 ± 0.014
GGTGGGCTAA | 0.9827 ± 0.0057
GGTGGGGATT | 1.07 ± 0.17
GGTGGGGGG | 0.977 ± 0.012
GGTGGGGGGC | 0.978 ± 0.048
GGTGGGGGTA | 1.04 ± 0.042

Sequence | switch fluorescence ratio
GGTGGGGGTC | 1.02 ± 0.022
GGTGGGGGTT | 0.999 ± 0.036
GGTGGGGT | 1.01 ± 0.0055
GGTGGGGTAT | 0.98 ± 0.021
GGTGGGTACG | 0.986 ± 0.052
GGTGGGTGGA | 1 ± 0.021
GGTGGGTGGT | 0.99 ± 0.036
GGTGGGTGTG | 1 ± 0.036
GGTGGTTGGC | 1.007 ± 0.0075
GGTGGTTGTT | 1.01 ± 0.043
GGTGTAAAAG | 1.014 ± 0.0036
GGTGTAGCGC | 1.015 ± 0.0075
GGTGTCAGGG | 0.989 ± 0.013
GGTGTCGCTA | 0.9795 ± 0.0094
GGTGTCGTCA | 1.024 ± 0.0081
GGTGTCGTTT | 1.02 ± 0.024
GGTGTCTGCA | 0.9931 ± 0.0019
GGTGTGAGAG | 1.02 ± 0.038
GGTGTGCCAT | 0.9897 ± 0.0069
GGTGTGGCGA | 1.03 ± 0.11
GGTGTGGTGA | 1.06 ± 0.049
GGTGTGTGAC | 0.999 ± 0.016
GGTGTGTGAG | 0.965 ± 0.01

Sequence | switch fluorescence ratio
GGTGTGTGTT | 0.9951 ± 0.0078
GGTGTTGAGT | 0.993 ± 0.037
GGTGTTGGAT | 1.01 ± 0.002
GGTGTTGGGC | 0.998 ± 0.067
GGTGTTGGTA | 0.974 ± 0.029
GGTGTTGTCT | 1.031 ± 0.0061
GGTGTTTAAG | 0.9717 ± 0.0067
GGTGTTTGTT | 0.956 ± 0.065
GGTTAAAACT | 0.987 ± 0.048
GGTTAAAGGA | 0.95798 ± 0.00066
GGTTAACGGA | 1 ± 0.016
GGTTAACTGT | 1.01 ± 0.026
GGTTAAGAAA | 1.021 ± 0.0081
GGTTAAGAGG | 1.02 ± 0.041
GGTTAGGGCG | 1.0062 ± 0.00068
GGTTAGGGTG | 1.047 ± 0.007
GGTTAGTACA | 1.01 ± 0.041
GGTTATAAGT | 0.975 ± 0.034
GGTTATATTT | 1.03 ± 0.072
